Assay results from patent publication US20210139602A1 (MEDABOME, published 2021).

Target: T1, rPODXL-v2-Del-Fc fusion protein (human, UniProt O00592-2 23-429, highly glycosylated)
T1 construct: extracellular domain; In-frame fusion of the ECD and human IgG1 Fc, expressed in CHO-K1; The two deletions are written as substitutions to '-'; not shown: human IgG1 Fc from the pFUSE-hIgG1-Fc1 expression vector (InvivoGen)
T1 sequence (looked up): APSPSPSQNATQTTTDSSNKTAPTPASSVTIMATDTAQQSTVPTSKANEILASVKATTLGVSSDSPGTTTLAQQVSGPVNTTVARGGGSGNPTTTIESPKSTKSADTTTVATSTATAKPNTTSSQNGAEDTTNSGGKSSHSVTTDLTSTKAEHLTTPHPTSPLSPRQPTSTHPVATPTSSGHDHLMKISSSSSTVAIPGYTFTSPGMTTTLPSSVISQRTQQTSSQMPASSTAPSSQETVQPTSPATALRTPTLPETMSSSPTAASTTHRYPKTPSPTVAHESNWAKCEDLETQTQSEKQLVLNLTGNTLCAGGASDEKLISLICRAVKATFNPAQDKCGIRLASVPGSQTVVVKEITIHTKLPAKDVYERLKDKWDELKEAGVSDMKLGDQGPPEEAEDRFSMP
Assay: BLI (Octet QKe), mAb captured on anti-mouse IgG Fc (AMC) biosensors, antigen in 1:2 serial dilutions
Description: The Octet® QKe System (Molecular Devices, San Jose, Calif.) was used to determine the binding affinities between MAI1738 mAb and the extracellular domains of PODXL-v2 and PODXL-v2-Del. The MAI1738 mAb was immobilized to the Anti-Mouse IgG Fc Capture (AMC) biosensors, followed by loading of the antigen, rPODXL-v2-Fc or rPODXL-v2-Del-Fc, at 1:2 serial dilutions for 5 minutes. The assay was repeated multiple times to determine the average range of the affinity between MAI1738 and rPODXL-v2-Fc or rPODXL-v2-Del-Fc.

B1: MAI1738 mAb (antibody, V domains shown)
VH: EVKLVESGGGLVKPGGSLKVSCAASGFTFSTYTMSWVRQTPEKRLEWVATISGGVIYTYYPDSVKGRFTISRDDAKNTLYLQMSSLRSEDTALYYCARHYSNYEGQGMDSWGQGTSVTVSS
VL: DIVLTQSPVTLSVTPGDSVSLSCRASQSINNNLHWYQQKSHESPRLLIKYASQSISGIPPRFSGSRSGTDFTLSINTVETEDFGVYFCQQSNSWPLTFGAGTKLELKR
notes: Mouse monoclonal antibody from a hybridoma (A/J mice); it is detected with anti-mouse IgG-Fc; also called anti-PODXL-v2 monoclonal antibody; second subclone of MS17-38
Q: For B1, which Kd is on record?
A: The Kd was 1.58 nM.
